Measured values reported in PMC4165468.
Where two headings read alike, the source gives them in different places.

B1: K-turn (structured_RNA)
RNA: GGAUCUGGGGCGUGAUCCGAAAGGUGACCCGGAUCC
B2: K-loop (structured_RNA)
RNA: GGAUCUGGGGUCUGAACGGUGAUGACCCGGAUCC

Legend:
Test in all cases: SPR
L7Ae [1] = target: T1, L7Ae (Archaeoglobus fulgidus, UniProt O29494 1-119)
L7Ae-K (L7-K) [2] = target: T2, L7Ae-K (L7-K) (Archaeoglobus fulgidus, UniProt O29494 1-119, K37A)
L7Ae [3] = target: T1, L7Ae; remark: listed apart in the source
L7Ae-K (L7-K) [4] = target: T2, L7Ae-K (L7-K); remark: listed apart in the source

T1 sequence (O29494 whole entry): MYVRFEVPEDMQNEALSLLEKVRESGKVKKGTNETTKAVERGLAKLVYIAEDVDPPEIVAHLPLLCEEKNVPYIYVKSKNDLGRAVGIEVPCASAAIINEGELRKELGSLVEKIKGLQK
T2 sequence (O29494 whole entry K37A): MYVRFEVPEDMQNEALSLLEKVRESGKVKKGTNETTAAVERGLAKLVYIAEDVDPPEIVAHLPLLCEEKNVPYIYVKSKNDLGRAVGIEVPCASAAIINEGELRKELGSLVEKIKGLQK

| Binder | Kd (L7Ae [1]) [nM] | Kd (L7Ae-K (L7-K) [2]) [nM] | Kd (L7Ae [3]) [nM] | Kd (L7Ae-K (L7-K) [4]) [nM] |
| --- | --- | --- | --- | --- |
| B1 | 1.6 | 15 | – | – |
| B2 | – | – | 2.2 | 26 |
